Patent US20030108992A1 (US Dept. of Health and Human Services, published 2003)

Target: T1, p80 TNFR (endogenous) (UniProt P20333 23-461, limits assumed)
T1 construct: whole, on cells; also called TNFR2; p75
T1 sequence (looked up): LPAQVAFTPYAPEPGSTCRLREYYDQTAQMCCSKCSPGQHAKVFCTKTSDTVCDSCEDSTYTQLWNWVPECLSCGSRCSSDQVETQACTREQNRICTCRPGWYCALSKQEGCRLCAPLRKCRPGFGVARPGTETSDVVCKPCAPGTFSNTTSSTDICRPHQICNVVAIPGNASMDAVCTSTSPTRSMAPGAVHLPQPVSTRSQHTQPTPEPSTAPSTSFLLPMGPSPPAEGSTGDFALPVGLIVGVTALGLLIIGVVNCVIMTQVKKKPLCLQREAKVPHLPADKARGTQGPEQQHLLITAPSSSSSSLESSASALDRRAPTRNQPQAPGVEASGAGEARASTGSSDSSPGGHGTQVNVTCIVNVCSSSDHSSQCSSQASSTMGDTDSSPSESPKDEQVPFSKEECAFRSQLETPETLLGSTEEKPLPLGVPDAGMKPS
Assay: DTSSP crosslinking of H9 cells, anti-p60 immunoprecipitation, Western blot
Procedure: H9 lymphoma cells were washed and resuspended in PBS. […] Cells were then treated with 2 mM of the crosslinker DTSSP (Pierce) for 30 minutes and the reaction was quenched with 20 mM Tris.Cl [pH 7.5] for 15 minutes on ice. The cells were lysed in 150 mM NaCl, 20 mM Tris.Cl [pH 7.5], 1 mM EDTA, 30 mM NaF, 2 mM b-glycerophosphate and 1 mM sodium orthovanadate with protease inhibitors added (Boehringer Mannheim). […] Densitometry was performed with a Kodak Image Station 440.

B1: p60 TNFR (endogenous) (receptor, UniProt P19438 30-455, looked up)
chain: LVPHLGDREKRDSVCPQGKYIHPQNNSICCTKCHKGTYLYNDCPGPGQDTDCRECESGSFTASENHLRHCLSCSKCRKEMGQVEISSCTVDRDTVCGCRKNQYRHYWSENLFQCFNCSLCLNGTVHLSCQEKQNTVCTCHAGFFLRENECVSCSNCKKSLECTKLCLPQIENVKGTEDSGTTVLLPLVIFFGLCLLSLLFIGLMYRYQRWKSKLYSIVCGKSTPEKEGELEGTTTKPLAPNPSFSPTPGFTPTLGFSPVPSSTFTSSSTYTPGDCPNFAAPRREVAPPYQGADPILATALASDPIPNPLQKWEDSAHKPQSLDTDDPATLYAVVENVPPLRWKEFVRRLGLSDHEIDRLELQNGRCLREAQYSMLATWRRRTPRREATLELLGRVLRDMDLLGCLEDIEEALCGPAALPPAPSLLR
notes: whole, on cells; also called endogenous p60 receptor; TNFR1
binding result: no binding
